Legend:
[1] = molecular target: T1, human CD28 (human, UniProt P10747 19-220); experiment: flow cytometry on Jurkat cells
T1 construct: whole, on cells; also called huCD28

[2] = molecular target: T1, human CD28; experiment: flow cytometry on Jurkat cells, reference bsAb
[3] = molecular target: T1, human CD28; experiment: worded affinity grade in the in vivo example; no assay named there

| binding result [1] | Binder | also measured |
| --- | --- | --- |
| binds | AI10O41/N (bispecific antibody, human IgG1, kappa, lambda, L234A L235A, κλ-body, huIgG1-LALAPA; also called AI10 (AI_1B6) kappa / O41 (Ob9_1A11) lambda) heavy: not shown light 1: DIVMTQTPLSLSVTPGQPASISCKSSGDLLEFAGKTYLYWYLQKPGQPPQLLIYEVSNRFSGVPDRFSGSGSGTDFTLKISRVEAEDVGVYYCMQAHGSKIGFTFGQGTKVEIKRTVAAPSVFIFPPSDEQLKSGTASVVCLLNNFYPREAKVQWKVDNALQSGNSQESVTEQDSKDSTYSLSSTLTLSKADYEKHKVYACEVTHQGLSSPVTKSFNRGEC light 2: SYVLTQPPSVSVAPGKTARITCGGNKIGHRAVHWYQQKPGQAPVLVIYYTYERPSGIPERFSGSNSGNTATLTISRVEAGDEADYYCQVWDWYSEGGVVFGGGTKLTVLGQPKAAPSVTLFPPSSEELQANKATLVCLISDFYPGAVTVAWKADSSPVKAGVETTTPSKQSNNKYAASSYLSLTPEQWKSHRSYSCQVTHEGSTVEKTVAPTECS | – |
| binds | AI3O35/N (bispecific antibody, human IgG1, kappa, lambda, L234A L235A, κλ-body, IgG1 LALAPA; also called AI3 (AI_1H5) kappa / O35 (Ob8_A10) lambda) heavy: not shown light 1: not shown light 2: QPVLTQPVSLSASPGASVSLTCTLRSDIRVRDYRIFWYQQKPGSPPQYLLRYKTDSDKQQGSGVPSRFSGSKDASANAGILLISGLQSEDEADYYCMIWHRTTGTSLVFGGGTKLTVLGQPKAAPSVTLFPPSSEELQANKATLVCLISDFYPGAVTVAWKADSSPVKAGVETTTPSKQSNNKYAASSYLSLTPEQWKSHRSYSCQVTHEGSTVEKTVAPTECS | – |

The next lines start with the binder.

| Binder | binding result [1] | also measured |
| --- | --- | --- |
| AI5O30/N (bispecific antibody, human IgG1, kappa, lambda, L234A L235A, κλ-body, huIgG1-LALAPA; also called AI5 (AI_1A9) kappa / O30 (O1b6_1D1) lambda) heavy: not shown light 1: DIVMTQTPLSLSVTPGQPASISCKSSGDLLTFEGKTYLYWYLQKPGQPPQLLIYEVSNRFSGVPDRFSGSGSGTDFTLKISRVEAEDVGVYYCMQAHSTRFAFTFGQGTKVEIKRTVAAPSVFIFPPSDEQLKSGTASVVCLLNNFYPREAKVQWKVDNALQSGNSQESVTEQDSKDSTYSLSSTLTLSKADYEKHKVYACEVTHQGLSSPVTKSFNRGEC light 2: not shown | binds | – |
| AI5O35/N (bispecific antibody, human IgG1, kappa, lambda, L234A L235A, κλ-body, huIgG1-LALAPA; also called AI5 (AI_1A9) kappa / O35 (Ob8_A10) lambda) heavy: not shown light 1: DIVMTQTPLSLSVTPGQPASISCKSSGDLLTFEGKTYLYWYLQKPGQPPQLLIYEVSNRFSGVPDRFSGSGSGTDFTLKISRVEAEDVGVYYCMQAHSTRFAFTFGQGTKVEIKRTVAAPSVFIFPPSDEQLKSGTASVVCLLNNFYPREAKVQWKVDNALQSGNSQESVTEQDSKDSTYSLSSTLTLSKADYEKHKVYACEVTHQGLSSPVTKSFNRGEC light 2: QPVLTQPVSLSASPGASVSLTCTLRSDIRVRDYRIFWYQQKPGSPPQYLLRYKTDSDKQQGSGVPSRFSGSKDASANAGILLISGLQSEDEADYYCMIWHRTTGTSLVFGGGTKLTVLGQPKAAPSVTLFPPSSEELQANKATLVCLISDFYPGAVTVAWKADSSPVKAGVETTTPSKQSNNKYAASSYLSLTPEQWKSHRSYSCQVTHEGSTVEKTVAPTECS | binds | – |
| AI5O41/N (bispecific antibody, human IgG1, kappa, lambda, L234A L235A, κλ-body, huIgG1-LALAPA; also called AI5 (AI_1A9) kappa / O41 (Ob9_1A11) lambda) heavy: not shown light 1: DIVMTQTPLSLSVTPGQPASISCKSSGDLLTFEGKTYLYWYLQKPGQPPQLLIYEVSNRFSGVPDRFSGSGSGTDFTLKISRVEAEDVGVYYCMQAHSTRFAFTFGQGTKVEIKRTVAAPSVFIFPPSDEQLKSGTASVVCLLNNFYPREAKVQWKVDNALQSGNSQESVTEQDSKDSTYSLSSTLTLSKADYEKHKVYACEVTHQGLSSPVTKSFNRGEC light 2: SYVLTQPPSVSVAPGKTARITCGGNKIGHRAVHWYQQKPGQAPVLVIYYTYERPSGIPERFSGSNSGNTATLTISRVEAGDEADYYCQVWDWYSEGGVVFGGGTKLTVLGQPKAAPSVTLFPPSSEELQANKATLVCLISDFYPGAVTVAWKADSSPVKAGVETTTPSKQSNNKYAASSYLSLTPEQWKSHRSYSCQVTHEGSTVEKTVAPTECS | binds | – |
| AI10O35/N (bispecific antibody, human IgG1, kappa, lambda, L234A L235A, κλ-body, huIgG1-LALAPA; also called AI10 (AI_1B6) kappa / O35 (Ob8_A10) lambda) heavy: not shown light 1: DIVMTQTPLSLSVTPGQPASISCKSSGDLLEFAGKTYLYWYLQKPGQPPQLLIYEVSNRFSGVPDRFSGSGSGTDFTLKISRVEAEDVGVYYCMQAHGSKIGFTFGQGTKVEIKRTVAAPSVFIFPPSDEQLKSGTASVVCLLNNFYPREAKVQWKVDNALQSGNSQESVTEQDSKDSTYSLSSTLTLSKADYEKHKVYACEVTHQGLSSPVTKSFNRGEC light 2: QPVLTQPVSLSASPGASVSLTCTLRSDIRVRDYRIFWYQQKPGSPPQYLLRYKTDSDKQQGSGVPSRFSGSKDASANAGILLISGLQSEDEADYYCMIWHRTTGTSLVFGGGTKLTVLGQPKAAPSVTLFPPSSEELQANKATLVCLISDFYPGAVTVAWKADSSPVKAGVETTTPSKQSNNKYAASSYLSLTPEQWKSHRSYSCQVTHEGSTVEKTVAPTECS | binds | – |
| AI10O30/N (bispecific antibody, human IgG1, kappa, lambda, L234A L235A, κλ-body, huIgG1-LALAPA; also called AI10 (AI_1B6) kappa / O30 (O1b6_1D1) lambda) heavy: not shown light 1: DIVMTQTPLSLSVTPGQPASISCKSSGDLLEFAGKTYLYWYLQKPGQPPQLLIYEVSNRFSGVPDRFSGSGSGTDFTLKISRVEAEDVGVYYCMQAHGSKIGFTFGQGTKVEIKRTVAAPSVFIFPPSDEQLKSGTASVVCLLNNFYPREAKVQWKVDNALQSGNSQESVTEQDSKDSTYSLSSTLTLSKADYEKHKVYACEVTHQGLSSPVTKSFNRGEC light 2: not shown | binds | – |
| AI3O41/N (bispecific antibody, human IgG1, kappa, lambda, L234A L235A, κλ-body, IgG1 LALAPA; also called AI3 (AI_1H5) kappa / O41 (Ob9_1A11) lambda) heavy: not shown light 1: not shown light 2: SYVLTQPPSVSVAPGKTARITCGGNKIGHRAVHWYQQKPGQAPVLVIYYTYERPSGIPERFSGSNSGNTATLTISRVEAGDEADYYCQVWDWYSEGGVVFGGGTKLTVLGQPKAAPSVTLFPPSSEELQANKATLVCLISDFYPGAVTVAWKADSSPVKAGVETTTPSKQSNNKYAASSYLSLTPEQWKSHRSYSCQVTHEGSTVEKTVAPTECS | binds | – |
| 1a28/AC84/N (bispecific antibody, human IgG1, kappa, L234A L235A, LALAPA-mutated huIgG1, 1+1 crossMAb/knobs-into-hole; also called benchmark CEA×CD28 bsAb) heavy 1: QSVLTQPPSVSAAPGQKVTISCSGSSSNIGIGLVSWYQQLPGTAPKLLIYNVNTRPSGIPDRFSGSKSGTSATLGITGLQTGDEADYYCGTWDFSYRVDFGGGTKLTVLSSASTKGPSVFPLAPSSKSTSGGTAALGCLVKDYFPEPVTVSWNSGALTSGVHTFPAVLQSSGLYSLSSVVTVPSSSLGTQTYICNVNHKPSNTKVDKKVEPKSCDKTHTCPPCPAPEAAGGPSVFLFPPKPKDTLMISRTPEVTCVVVDVSHEDPEVKFNWYVDGVEVHNAKTKPREEQYNSTYRVVSVLTVLHQDWLNGKEYKCKVSNKALAAPIEKTISKAKGQPREPQVYTLPPCRDELTKNQVSLWCLVKGFYPSDIAVEWQSNGQTENNYKTTPPVLDSDGSFFLYSKLTVDKSRWQQGNVFSCSVMHEALHNHYTQKSLSLSPG heavy 2: QVQLQESGPGLVKPSETLSLTCTVSGGSISSYYWSWIRQPPGKGLEWIGYIYYSGITHYNPSLKSRVTISVDTSKIQFSLKLSSVTAADTAVYYCARWGVRRDYYYYGMDVWGQGTTVTVSSASTKGPSVFPLAPSSKSTSGGTAALGCLVEDYFPEPVTVTWNSGALSSGVHTFPAVLQSSGLYSLSSVVTVPSSSLGTQTYICNVNHKPSNTKVDEKVEPKSCDKTHTCPPCPAPEAAGGPSVFLFPPKPKDTLMISRTPEVTCVVVDVSHEDPEVKFNWYVDGVEVHNAKTKPREEQYNSTYRVVSVLTVLHQDWLNGKEYKCKVSNKALAAPIEKTISKAKGQPREPQVCTLPPSRDELTKNQVSLSCAVKGFYPSDIAVEWESNGQPENNYKTTPPVLDSDGSFFLVSKLTVDKSRWQQGNVFSCSVMHEALHNHYTQKSLSLSPG light 1: not shown light 2: not shown | – | binding result [2]: binds |
| AI3AC84/N (bispecific antibody, human IgG1, kappa, lambda, L234A L235A, κλ-body, IgG1 LALAPA; also called AI3 (AI_1H5) kappa / AC84 (AC1g6_1F1) lambda) heavy: not shown light 1: not shown light 2: QSVLTQPPSVSAAPGQKVTISCSGSSSNIGIGLVSWYQQLPGTAPKLLIYNVNTRPSGIPDRFSGSKSGTSATLGITGLQTGDEADYYCGTWDFSYRVDFGGGTKLTVLGQPKAAPSVTLFPPSSEELQANKATLVCLISDFYPGAVTVAWKADSSPVKAGVETTTPSKQSNNKYAASSYLSLTPEQWKSHRSYSCQVTHEGSTVEKTVAPTECS | – | binding result [3]: binds |
| AI5AC84/N (bispecific antibody, human IgG1, kappa, lambda, L234A L235A, κλ-body, IgG1 LALAPA; also called AI5 (AI_1A9) kappa / AC84 (AC1g6_1F1) lambda) heavy: not shown light 1: DIVMTQTPLSLSVTPGQPASISCKSSGDLLTFEGKTYLYWYLQKPGQPPQLLIYEVSNRFSGVPDRFSGSGSGTDFTLKISRVEAEDVGVYYCMQAHSTRFAFTFGQGTKVEIKRTVAAPSVFIFPPSDEQLKSGTASVVCLLNNFYPREAKVQWKVDNALQSGNSQESVTEQDSKDSTYSLSSTLTLSKADYEKHKVYACEVTHQGLSSPVTKSFNRGEC light 2: QSVLTQPPSVSAAPGQKVTISCSGSSSNIGIGLVSWYQQLPGTAPKLLIYNVNTRPSGIPDRFSGSKSGTSATLGITGLQTGDEADYYCGTWDFSYRVDFGGGTKLTVLGQPKAAPSVTLFPPSSEELQANKATLVCLISDFYPGAVTVAWKADSSPVKAGVETTTPSKQSNNKYAASSYLSLTPEQWKSHRSYSCQVTHEGSTVEKTVAPTECS | – | binding result [3]: binds |
| AI10AC84/N (bispecific antibody, human IgG1, kappa, lambda, L234A L235A, κλ-body, IgG1 LALAPA; also called AI10 (AI_1B6) kappa / AC84 (AC1g6_1F1) lambda) heavy: not shown light 1: DIVMTQTPLSLSVTPGQPASISCKSSGDLLEFAGKTYLYWYLQKPGQPPQLLIYEVSNRFSGVPDRFSGSGSGTDFTLKISRVEAEDVGVYYCMQAHGSKIGFTFGQGTKVEIKRTVAAPSVFIFPPSDEQLKSGTASVVCLLNNFYPREAKVQWKVDNALQSGNSQESVTEQDSKDSTYSLSSTLTLSKADYEKHKVYACEVTHQGLSSPVTKSFNRGEC light 2: QSVLTQPPSVSAAPGQKVTISCSGSSSNIGIGLVSWYQQLPGTAPKLLIYNVNTRPSGIPDRFSGSKSGTSATLGITGLQTGDEADYYCGTWDFSYRVDFGGGTKLTVLGQPKAAPSVTLFPPSSEELQANKATLVCLISDFYPGAVTVAWKADSSPVKAGVETTTPSKQSNNKYAASSYLSLTPEQWKSHRSYSCQVTHEGSTVEKTVAPTECS | – | binding result [3]: binds |

Reference: US20240002544A1 (NOVIMMUNE, published 2024)
